Target: the molecule itself
Test: SEC; size-exclusion chromatography after elution from the His Trap Nickel column; estimated apparent molecular weight 113 kDa

B1: Human kynurenine aminotransferase 1 (hKYAT1), wild-type, recombinant (enzyme)
chain: MAKQLQARRLDGIDYNPWVEFVKLASEHDVVNLGQGFPDFPPPDFAVEAFQHAVSGDFMLNQYTKTFGYPPLTKILASFFGELLGQEIDPLRNVLVTVGGYGALFTAFQALVDEGDEVIIIEPFFDCYEPMTMMAGGRPVFVSLKPGPIQNGELGSSSNWQLDPMELAGKFTSRTKALVLNTPNNPLGKVFSREELELVASLCQQHDVVCITDEVYQWMVYDGHQHISIASLPGMWERTLTIGSAGKTFSATGWKVGWVLGPDHIMKHLRTVHQNSVFHCPTQSQAAVAESFEREQLLFRQPSSYFVQFPQAMQRCRDHMIRSLQSVGLKPIIPQGSYFLITDISDFKRKMPDLPGAVDEPYDRRFVKWMIKNKGLVAIPVSIFYSVPHQKHFDHYIRFCFVKDEATLQAMDEKLRKWKVEL
notes: human kynurenine aminotransferase 1 (KYAT1), wild type; The PDB entries are cited crystal structures of human KYAT1, not necessarily of this construct; also called KAT1; cysteine-S-conjugate beta-lyase 1; source: E. coli BL21, purified (His Trap Nickel column, size-exclusion chromatography)
  stoichiometry N: 2

Reference: publication PMC12808825, “Structural and functional modulation of human kynurenine aminotransferase I enhances selenium-driven redox metabolism for cancer therapy” (Redox Biology, 2025)
